Reference: FireProtDB (doi:10.1074/jbc.m112.408906)

B1: Myocilin, Q99972 (parent)
chain: MRFFCARCCSFGPEMPAVQLLLLACLVWDVGARTAQLRKANDQSGRCQYTFSVASPNESSCPEQSQAMSVIHNLQRDSSTQRLDLEATKARLSSLESLLHQLTLDQAARPQETQEGLQRELGTLRRERDQLETQTRELETAYSNLLRDKSVLEEEKKRLRQENENLARRLESSSQEVARLRRGQCPQTRDTARAVPPGSREVSTWNLDTLAFQELKSELTEVPASRILKESPSGYLRSGEGDTGCGELVWVGEPLTLRTAETITGKYGVWMRDPKPTYPYTQETTWRIDTVGTDVRQVFEYDLISQFMQGYPSKVHILPRPLESTGAVVYSGSLYFQGAESRTVIRYELNTETVKAEKEIPGAGYHGQFPYSWGGYTDIDLAVDEAGLWVIYSTDEAKGAIVLSKLNPENLELEQTWETNIRKQSVANAFIICGTLYTVSSYTSADATVNFAYDTGTGISKTLTIPFKNRYKYSSMIDYNPLEKKLFAWDNLNMVTYDIKLSKM

Variants of: B1
Details: Homo sapiens, pH 6, Thermal, CD, Sodium acetate 10mM, reversible: no, structure 4WXQ, whole UniProt chain shown

Variant	Tm (CaCl2 1mM)	change of melting temperature, mutant - wild type (higher = more stable) (CaCl2 1mM)	Tm (CaCl2 10mM)	change of melting temperature, mutant - wild type (higher = more stable) (CaCl2 10mM)
G367R	42.7 °C	-10.3 °C	50.9 °C	-8.7 °C
G252R	43 °C	-10 °C	51.5 °C	-8.1 °C
K423E	34.2 °C	-18.8 °C	43.2 °C	-16.4 °C
N480K	42.4 °C	-10.6 °C	48.1 °C	-11.5 °C
Y437H	40.3 °C	-12.7 °C	48.6 °C	-11 °C
D273A	21.7 °C	-31.3 °C	21.1 °C	-38.5 °C
G246R	42.5 °C	-10.5 °C	50.6 °C	-9 °C
D384A	42.5 °C	-10.5 °C	–	–
E323K	44 °C	-9 °C	50.3 °C	-9.3 °C
E385A	39.7 °C	-13.3 °C	49.7 °C	-9.9 °C
D380A	46.6 °C	-6.4 °C	45.1 °C	-14.5 °C
G364V	45 °C	-8 °C	51.9 °C	-7.7 °C
T377M	44.3 °C	-8.7 °C	50.6 °C	-9 °C
I477N	37.7 °C	-15.3 °C	–	–
I477S	39.7 °C	-13.3 °C	48.2 °C	-11.4 °C
R272G	41 °C	-12 °C	48.6 °C	-11 °C
A427T	48.3 °C	-4.7 °C	55.2 °C	-4.4 °C
C433R	40.4 °C	-12.6 °C	49.4 °C	-10.2 °C
V426F	41.5 °C	-11.5 °C	49.9 °C	-9.7 °C
P481L	45.5 °C	-7.5 °C	51.2 °C	-8.4 °C
S502P	41 °C	-12 °C	49.9 °C	-9.7 °C
I499F	42.8 °C	-10.2 °C	50.4 °C	-9.2 °C
